In patent publication US20140087995A1 (published 2014):
Numbered stars: 1 amine (or outer) side, 2 acyl side, 3 side chain; on linkers, the order of the positions; unused ones are H or OH. Bridge positions count the residues as written; N and C are the ends. Side chains are listed from the residue outwards. Ends that are not written are not given here. * marks the point of attachment. C20 diacid = O=C(O)CCCCCCCCCCCCCCCCCCC(=O)*; γGlu = O=C(O)[C@H](CCC(=O)[*:2])N[*:1]; AEEA = NCCOCCOCC(=O)O

T1: human amylin receptor (amylin 3(a) receptor: human calcitonin receptor co-expressed with RAMP-3) (human, UniProt P30988 25-474; O60896 24-148, limits assumed)
T1 sequence (looked up) 1: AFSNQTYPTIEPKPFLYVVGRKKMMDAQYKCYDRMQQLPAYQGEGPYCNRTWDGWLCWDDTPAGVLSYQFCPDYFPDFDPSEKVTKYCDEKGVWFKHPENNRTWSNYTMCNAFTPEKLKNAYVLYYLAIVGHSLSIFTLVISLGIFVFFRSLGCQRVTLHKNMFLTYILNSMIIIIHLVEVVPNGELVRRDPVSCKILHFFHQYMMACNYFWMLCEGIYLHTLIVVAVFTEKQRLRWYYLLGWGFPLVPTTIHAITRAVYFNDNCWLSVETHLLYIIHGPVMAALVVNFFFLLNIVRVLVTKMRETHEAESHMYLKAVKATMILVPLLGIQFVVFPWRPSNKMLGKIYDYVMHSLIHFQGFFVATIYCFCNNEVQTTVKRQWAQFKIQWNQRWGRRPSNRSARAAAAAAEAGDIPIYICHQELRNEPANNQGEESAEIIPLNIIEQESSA
T1 sequence (looked up) 2: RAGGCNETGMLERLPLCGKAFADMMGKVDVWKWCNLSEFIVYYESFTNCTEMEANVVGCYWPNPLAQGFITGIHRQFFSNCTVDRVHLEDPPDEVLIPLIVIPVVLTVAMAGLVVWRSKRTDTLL

T2: human calcitonin receptor (human, UniProt P30988 25-474)
T2 sequence (looked up): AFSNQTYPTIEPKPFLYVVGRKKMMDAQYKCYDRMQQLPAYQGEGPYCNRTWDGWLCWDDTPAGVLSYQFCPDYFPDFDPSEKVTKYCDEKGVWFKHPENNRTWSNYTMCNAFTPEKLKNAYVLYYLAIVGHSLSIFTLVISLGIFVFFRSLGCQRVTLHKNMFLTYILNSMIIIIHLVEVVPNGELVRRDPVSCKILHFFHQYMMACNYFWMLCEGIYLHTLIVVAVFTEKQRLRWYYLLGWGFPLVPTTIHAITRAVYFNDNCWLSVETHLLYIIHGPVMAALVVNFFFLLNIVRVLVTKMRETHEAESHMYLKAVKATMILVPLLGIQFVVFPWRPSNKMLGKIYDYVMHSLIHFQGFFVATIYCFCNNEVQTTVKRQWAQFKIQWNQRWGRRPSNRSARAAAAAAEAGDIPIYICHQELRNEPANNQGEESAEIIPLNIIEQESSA


What was measured:
[1] = target: T1, human amylin receptor (amylin 3(a) …); assay: cell-based or functional assay
[2] = target: T2, human calcitonin receptor; assay: cell-based or functional assay

Row | Binder | hAmylin-R funct. EC50 [1] [nM] | hCTR funct. EC50 [2] [nM] | Ratio hCT/hAmylin funct. [1]
1 | K([γGlu-C20 diacid])CNTATCATQRLAHFLRHSSPNFGAIPSSTNVGSNTY-NH2 (disulfide 2-7; N-terminus assumed; SMILES CC[C@H](C)[C@H](NC(=O)[C@H](C)NC(=O)CNC(=O)[C@H](Cc1ccccc1)NC(=O)[C@H](CC(N)=O)NC(=O)[C@@H]1CCCN1C(=O)[C@H](CO)NC(=O)[C@H](CO)NC(=O)[C@H](Cc1c[nH]cn1)NC(=O)[C@H](CCCNC(=N)N)NC(=O)[C@H](CC(C)C)NC(=O)[C@H](Cc1ccccc1)NC(=O)[C@H](Cc1c[nH]cn1)NC(=O)[C@H](C)NC(=O)[C@H](CC(C)C)NC(=O)[C@H](CCCNC(=N)N)NC(=O)[C@H](CCC(N)=O)NC(=O)[C@@H](NC(=O)[C@H](C)NC(=O)[C@@H]1CSSC[C@H](NC(=O)[C@@H](N)CCCCNC(=O)CC[C@H](NC(=O)CCCCCCCCCCCCCCCCCCC(=O)O)C(=O)O)C(=O)N[C@@H](CC(N)=O)C(=O)N[C@@H]([C@@H](C)O)C(=O)N[C@@H](C)C(=O)N[C@@H]([C@@H](C)O)C(=O)N1)[C@@H](C)O)C(=O)N1CCC[C@H]1C(=O)N[C@@H](CO)C(=O)N[C@@H](CO)C(=O)N[C@H](C(=O)N[C@@H](CC(N)=O)C(=O)N[C@H](C(=O)NCC(=O)N[C@@H](CO)C(=O)N[C@@H](CC(N)=O)C(=O)N[C@H](C(=O)N[C@@H](Cc1ccc(O)cc1)C(N)=O)[C@@H](C)O)C(C)C)[C@@H](C)O, also called compound 70) [N^ε1-[(4S)-4-carboxy-4-(19-carboxynonadecanoylamino)butanoyl]-[His14,Arg17,Pro21,Pro27]-h-amylin] | 0.04 | 0.715 | –
2 | K([γGlu-γGlu-C20 diacid])CNTATCATQRLANFLRHSSPNFGAIPSSTNVGHNTY-NH2 (disulfide 2-7; N-terminus assumed; SMILES CC[C@H](C)[C@H](NC(=O)[C@H](C)NC(=O)CNC(=O)[C@H](Cc1ccccc1)NC(=O)[C@H](CC(N)=O)NC(=O)[C@@H]1CCCN1C(=O)[C@H](CO)NC(=O)[C@H](CO)NC(=O)[C@H](Cc1c[nH]cn1)NC(=O)[C@H](CCCNC(=N)N)NC(=O)[C@H](CC(C)C)NC(=O)[C@H](Cc1ccccc1)NC(=O)[C@H](CC(N)=O)NC(=O)[C@H](C)NC(=O)[C@H](CC(C)C)NC(=O)[C@H](CCCNC(=N)N)NC(=O)[C@H](CCC(N)=O)NC(=O)[C@@H](NC(=O)[C@H](C)NC(=O)[C@@H]1CSSC[C@H](NC(=O)[C@@H](N)CCCCNC(=O)CC[C@H](NC(=O)CC[C@H](NC(=O)CCCCCCCCCCCCCCCCCCC(=O)O)C(=O)O)C(=O)O)C(=O)N[C@@H](CC(N)=O)C(=O)N[C@@H]([C@@H](C)O)C(=O)N[C@@H](C)C(=O)N[C@@H]([C@@H](C)O)C(=O)N1)[C@@H](C)O)C(=O)N1CCC[C@H]1C(=O)N[C@@H](CO)C(=O)N[C@@H](CO)C(=O)N[C@H](C(=O)N[C@@H](CC(N)=O)C(=O)N[C@H](C(=O)NCC(=O)N[C@@H](Cc1c[nH]cn1)C(=O)N[C@@H](CC(N)=O)C(=O)N[C@H](C(=O)N[C@@H](Cc1ccc(O)cc1)C(N)=O)[C@@H](C)O)C(C)C)[C@@H](C)O, also called compound 86) | 0.298 | 19.2 | 64.4
3 | K([γGlu-γGlu-C20 diacid])CNTATCATQRLAEFLRHSSPNFGAIPSSTNVGRNTY-NH2 (disulfide 2-7; N-terminus assumed; SMILES CC[C@H](C)[C@H](NC(=O)[C@H](C)NC(=O)CNC(=O)[C@H](Cc1ccccc1)NC(=O)[C@H](CC(N)=O)NC(=O)[C@@H]1CCCN1C(=O)[C@H](CO)NC(=O)[C@H](CO)NC(=O)[C@H](Cc1c[nH]cn1)NC(=O)[C@H](CCCNC(=N)N)NC(=O)[C@H](CC(C)C)NC(=O)[C@H](Cc1ccccc1)NC(=O)[C@H](CCC(=O)O)NC(=O)[C@H](C)NC(=O)[C@H](CC(C)C)NC(=O)[C@H](CCCNC(=N)N)NC(=O)[C@H](CCC(N)=O)NC(=O)[C@@H](NC(=O)[C@H](C)NC(=O)[C@@H]1CSSC[C@H](NC(=O)[C@@H](N)CCCCNC(=O)CC[C@H](NC(=O)CC[C@H](NC(=O)CCCCCCCCCCCCCCCCCCC(=O)O)C(=O)O)C(=O)O)C(=O)N[C@@H](CC(N)=O)C(=O)N[C@@H]([C@@H](C)O)C(=O)N[C@@H](C)C(=O)N[C@@H]([C@@H](C)O)C(=O)N1)[C@@H](C)O)C(=O)N1CCC[C@H]1C(=O)N[C@@H](CO)C(=O)N[C@@H](CO)C(=O)N[C@H](C(=O)N[C@@H](CC(N)=O)C(=O)N[C@H](C(=O)NCC(=O)N[C@@H](CCCNC(=N)N)C(=O)N[C@@H](CC(N)=O)C(=O)N[C@H](C(=O)N[C@@H](Cc1ccc(O)cc1)C(N)=O)[C@@H](C)O)C(C)C)[C@@H](C)O, also called compound 88) | 0.773 | 6.55 | 8.5
4 | K([γGlu-γGlu-C20 diacid])CNTATCATQRLAEFLRHSSPNFGAIPSSTNVGSRTY-NH2 (disulfide 2-7; N-terminus assumed; SMILES CC[C@H](C)[C@H](NC(=O)[C@H](C)NC(=O)CNC(=O)[C@H](Cc1ccccc1)NC(=O)[C@H](CC(N)=O)NC(=O)[C@@H]1CCCN1C(=O)[C@H](CO)NC(=O)[C@H](CO)NC(=O)[C@H](Cc1c[nH]cn1)NC(=O)[C@H](CCCNC(=N)N)NC(=O)[C@H](CC(C)C)NC(=O)[C@H](Cc1ccccc1)NC(=O)[C@H](CCC(=O)O)NC(=O)[C@H](C)NC(=O)[C@H](CC(C)C)NC(=O)[C@H](CCCNC(=N)N)NC(=O)[C@H](CCC(N)=O)NC(=O)[C@@H](NC(=O)[C@H](C)NC(=O)[C@@H]1CSSC[C@H](NC(=O)[C@@H](N)CCCCNC(=O)CC[C@H](NC(=O)CC[C@H](NC(=O)CCCCCCCCCCCCCCCCCCC(=O)O)C(=O)O)C(=O)O)C(=O)N[C@@H](CC(N)=O)C(=O)N[C@@H]([C@@H](C)O)C(=O)N[C@@H](C)C(=O)N[C@@H]([C@@H](C)O)C(=O)N1)[C@@H](C)O)C(=O)N1CCC[C@H]1C(=O)N[C@@H](CO)C(=O)N[C@@H](CO)C(=O)N[C@H](C(=O)N[C@@H](CC(N)=O)C(=O)N[C@H](C(=O)NCC(=O)N[C@@H](CO)C(=O)N[C@@H](CCCNC(=N)N)C(=O)N[C@H](C(=O)N[C@@H](Cc1ccc(O)cc1)C(N)=O)[C@@H](C)O)C(C)C)[C@@H](C)O, also called compound 89) | 0.404 | 11.2 | 27.8
5 | KCNTATCATQRLADFLRHSSK([γGlu-γGlu-C20 diacid])NFGAIPSSTNVGSDTY-NH2 (disulfide 2-7; N-terminus assumed; SMILES CC[C@H](C)[C@H](NC(=O)[C@H](C)NC(=O)CNC(=O)[C@H](Cc1ccccc1)NC(=O)[C@H](CC(N)=O)NC(=O)[C@H](CCCCNC(=O)CC[C@H](NC(=O)CC[C@H](NC(=O)CCCCCCCCCCCCCCCCCCC(=O)O)C(=O)O)C(=O)O)NC(=O)[C@H](CO)NC(=O)[C@H](CO)NC(=O)[C@H](Cc1c[nH]cn1)NC(=O)[C@H](CCCNC(=N)N)NC(=O)[C@H](CC(C)C)NC(=O)[C@H](Cc1ccccc1)NC(=O)[C@H](CC(=O)O)NC(=O)[C@H](C)NC(=O)[C@H](CC(C)C)NC(=O)[C@H](CCCNC(=N)N)NC(=O)[C@H](CCC(N)=O)NC(=O)[C@@H](NC(=O)[C@H](C)NC(=O)[C@@H]1CSSC[C@H](NC(=O)[C@@H](N)CCCCN)C(=O)N[C@@H](CC(N)=O)C(=O)N[C@@H]([C@@H](C)O)C(=O)N[C@@H](C)C(=O)N[C@@H]([C@@H](C)O)C(=O)N1)[C@@H](C)O)C(=O)N1CCC[C@H]1C(=O)N[C@@H](CO)C(=O)N[C@@H](CO)C(=O)N[C@H](C(=O)N[C@@H](CC(N)=O)C(=O)N[C@H](C(=O)NCC(=O)N[C@@H](CO)C(=O)N[C@@H](CC(=O)O)C(=O)N[C@H](C(=O)N[C@@H](Cc1ccc(O)cc1)C(N)=O)[C@@H](C)O)C(C)C)[C@@H](C)O, also called compound 59) | 0.389 | 1.95 | –
6 | K([AEEA-C20 diacid])CNTATCATQRLAHFLRHSSPNFGAIPSSTNVGSNTY-NH2 (disulfide 2-7; N-terminus assumed; SMILES CC[C@H](C)[C@H](NC(=O)[C@H](C)NC(=O)CNC(=O)[C@H](Cc1ccccc1)NC(=O)[C@H](CC(N)=O)NC(=O)[C@@H]1CCCN1C(=O)[C@H](CO)NC(=O)[C@H](CO)NC(=O)[C@H](Cc1c[nH]cn1)NC(=O)[C@H](CCCNC(=N)N)NC(=O)[C@H](CC(C)C)NC(=O)[C@H](Cc1ccccc1)NC(=O)[C@H](Cc1c[nH]cn1)NC(=O)[C@H](C)NC(=O)[C@H](CC(C)C)NC(=O)[C@H](CCCNC(=N)N)NC(=O)[C@H](CCC(N)=O)NC(=O)[C@@H](NC(=O)[C@H](C)NC(=O)[C@@H]1CSSC[C@H](NC(=O)[C@@H](N)CCCCNC(=O)COCCOCCNC(=O)CCCCCCCCCCCCCCCCCCC(=O)O)C(=O)N[C@@H](CC(N)=O)C(=O)N[C@@H]([C@@H](C)O)C(=O)N[C@@H](C)C(=O)N[C@@H]([C@@H](C)O)C(=O)N1)[C@@H](C)O)C(=O)N1CCC[C@H]1C(=O)N[C@@H](CO)C(=O)N[C@@H](CO)C(=O)N[C@H](C(=O)N[C@@H](CC(N)=O)C(=O)N[C@H](C(=O)NCC(=O)N[C@@H](CO)C(=O)N[C@@H](CC(N)=O)C(=O)N[C@H](C(=O)N[C@@H](Cc1ccc(O)cc1)C(N)=O)[C@@H](C)O)C(C)C)[C@@H](C)O, also called compound 90) [N^ε1-[2-[2-[2-(19-carboxynonadecanoylamino)ethoxy]ethoxy]acetyl]-[His14,Arg17,Pro21,Pro27]-h-amylin] | 0.033 | 0.236 | 7.2
